Test system: BglII restriction endonuclease (R.BglII) (Bacillus globigii)
Test: cleavage_in_vitro
Conditions: nonspecific nicking test; 80 units, 4 h, 37 C, 10 mM MgCl2

Work on phiX174 RFI DNA yielded an activity (% converted to RFII) of 10.
